{"source": "patent US8841270B2", "about": "“Use of inhibitors of Zdhhc2 activity for modulation of adipogenesis” (Sanofi, priority 2009, dated 2014)", "key": {"C57BL/6J mice": {"system": "C57BL/6J mice", "experiment": "Rimonabant treatment of high fat diet fed mice, glucose tolerance", "assay_type": "in vivo, mouse", "settings": "HFD C57BL/6J mice, rimonabant 10 mg·kg−1·day−1 for one month", "from_the_text": "C57BL/6J mice, which are obesity-prone (5), were fed for 6 months with a high fat diet (HFD)."}, "3T3-L1 cells": {"system": "3T3-L1 cells", "experiment": "Adipogenesis of retrovirally transduced 3T3-L1 cells (oil-red-O staining, aP2 mRNA by RT-PCR)", "assay_type": "cell-based, mouse", "experimental": "3T3-L1 cells were cultured in DMEM (Gibco) with 10% FBS (Gibco) at 5% CO2. After retroviral infection (see below), cells were allow to grow to confluence in either 100-mm or 60-mm dishes in DMEM with 10% FBS. Once confluence was reached, cells were exposed to differentiation medium containing dexamethasone (1 μM), insulin (5 μg/ml), and isobutylmethylxanthine ([…]) (DMI). After 2 days cells were maintained in medium containing insulin ([…]) until ready for harvest at 7 days.\nAfter 7 to 10 days of differentiation, cells were washed once in PBS and fixed with formaldehyde (Formalde-fresh; Fisher) for 15 minutes. The staining solution was prepared by dissolving 0.5 g oil-red-0 in 100 ml of isopropanol; 60 ml of this solution was mixed with 40 ml of distilled water. After 1 hour at room temperature the staining solution was filtered and added to dishes for 4 hours. The staining solution was then removed and cells were washed twice with distilled water.\nRetroviruses were constructed in the RNAi-Ready pSIREN-RetroQ ZsGreen (pSIREN Clontech). Viral constructs were transfected using calcium-phosphate method described in Jordan, M. et al. (2004) into 293 HEK packaging cells along with constructs encoding gag-pol and the VSV-G protein. […]"}, "Zdhhc2": {"system": "Zdhhc2", "experiment": "shRNA knockdown of Zdhhc2 expression, mRNA by RT-PCR", "assay_type": "cell-based, mouse", "settings": "shRNA in pSIREN plasmid, tested in 293T HEK cells; mRNA by RT-PCR (FIG. 3A)", "from_the_text": "shRNAs were constructed using the RNAi-Ready pSIREN-RetroQ ZsGreen (Clontech). Target sequences for Zdhhc2 were designed by querying the Whitehead siRNA algorithm (http://jura.wi.mit.edu/bioc/siRNAext/) as well as the siRNA designer software from Clontech (http://bioinfo.clontech.com/rnaidesigner/); at least two sequences represented by both algorithms were subcloned into the pSIREN vectors (Clontech) using the EcoRI and BamH1 restriction sites. The following target sequences for Zdhhc2 were chosen SEQ ID NO. 5 and 6 as a negative control, we used the following siRNA sequence against luciferase: SEQ ID NO. 7.\nThe specificity of shRNAs was tested in 293T HEK cells co-transfected using calcium-Phosphate methods described in (14) with expression vectors containing Zdhhc2 cDNA and the RNAi-Ready pSIREN-RetroQ ZsGreen vector expressing either the shRNA against lucifeare (control shLUC) or Zdhhc2 (shZdhhc2). RT-PCR analysis was performed on cell RNA-extraction 24 h after transfection.\nTotal RNA was isolated from cultured cells using peqGOLD TriFast reagent according to the manufacturer's instructions (Axonlab). First strand cDNA was synthesized from 0.5 μg of total RNA using random primers and Superscript II (Invitrogen). […]\nFor the loss-of-function studies, shRNA specific for Zdhhc2 subcloned into a retroviral vector from Clontech were used (RNAi-Ready pSIREN-RetroQ ZsGreen or pSIREN). […]"}}, "data": [{"molecule": "Cc1c(C(=O)NN2CCCCC2)nn(-c2ccc(Cl)cc2Cl)c1-c1ccc(Cl)cc1", "note": "[rimonabant]", "values": [{"measurement": "glucose tolerance", "setting": "C57BL/6J mice", "value": "normalized glucose tolerance"}]}, {"molecule": "shLuc: negative control shRNA directed against luciferase, SEQ ID NO. 7 (nucleic acid) GATCCGTGCGTTGCTAGTACCAATTCAAGAGATTGGTACTAGCAACGCACTTTTTTACGCGTG", "values": [{"measurement": "inhibition of adipogenesis in vitro", "setting": "3T3-L1 cells; 3T3-L1 cells, oil-red-O staining and aP2 expression at day 9", "value": "no inhibition"}]}, {"molecule": "shZdhhc2-2: shRNA specific for Zdhhc2 in pSIREN retroviral vector; target sequence probably SEQ ID NO. 6 (nucleic acid) DNA: GATCCGTATGAGCAACCCTGCATTTCAAGAGAATGCAGGGTTGCTCATACTTTTTTACGCGTG", "values": [{"measurement": "aP2 expression decreased", "setting": "3T3-L1 cells; infected 3T3-L1 cells, day 9 of differentiation with DMI, RT-PCR", "value": 60, "unit": "%"}, {"measurement": "knockdown of Zdhhc2 expression", "setting": "Zdhhc2", "value": 50, "unit": "%"}]}]}
